{"source": "paper PMC12090761", "key": {"[1]": {"target": "HIV-1 Gag (Pr55), immature Gag lattice of NL4-3 VLPs (HIV-1 (NL4-3))"}, "[2]": {"target": "HIV-1 Gag (Pr55), immature Gag lattice of NL4-3 VLPs (HIV-1 (NL4-3))", "details": "scale: mol HA-Halo-gt-EnvCT/mol NL4-3"}, "[3]": {"target": "HIV-1 Gag (Pr55), immature Gag lattice of NL4-3 VLPs (HIV-1 (NL4-3))", "assay": "co-sedimentation; immature VLPs from HEK293T stripped of membrane with 0.05% NP-40 (Env trimers) or 0.075% NP-40 (mCD4 chimeras) or PBS, 15 minutes at 25°C, sedimented through 20% sucrose at 60,000 x g, 4°C, 1 hour; pellets blotted for gp41, CD4 and Pr55"}, "[4]": {"target": "HIV-1 Gag (Pr55), immature Gag lattice of NL4-3 VLPs (HIV-1 (NL4-3))", "remark": "listed apart in the source"}}, "data": [{"substance": "HA-Halo-gt-EnvCT (712YA) chimera", "values": [{"measurement": "double exponential loss curve of the competitive inhibition of 712YA Env incorporation into VLPs; half-maximal inhibition", "setting": "[1]", "value": 0.6, "unit": "gp41/Pr55"}, {"measurement": "restriction of the incorporation of Env-712YA trimers into VLPs (gp41/Pr55 by western blot; HEK293T co-transfected with chimera and NL4-3 pol(-) Env-712YA plasmids at 0 to 1.375 mol/mol)", "setting": "[2]", "value": 0.3}]}, {"substance": "HIV-1 WT Env (NL4-3), gp120/gp41 trimer (complex)", "values": [{"measurement": "percent co-sedimenting with Gag after detergent", "setting": "[3]", "value": 10, "unit": "%"}]}, {"substance": "monomeric CD4-EnvCT 712YA chimera (from UniProt P01730 26-420)", "values": [{"measurement": "incorporation into VLPs released from transduced A2.01 T cells (western blot), mCD4-EnvCT relative to mCD4-ΔCT", "setting": "[4]", "value": 16.7, "unit": "fold"}]}]}
